Test results: publication PMC10540216, “Activity Guided Azide-methyllysine Photo-trapping for Substrate Profiling of Lysine Demethylases” (Journal of the American Chemical Society, 2023)

B1: C1TM_HUMAN (protein, UniProt Q6UB35 32-978, looked up)
Monofunctional …: SSGGGGGGGGGREGLLGQRRPQDGQARSSCSPGGRTPAARDSIVREVIQNSKEVLSLLQEKNPAFKPVLAIIQAGDDNLMQEINQNLAEEAGLNITHICLPPDSSEAEIIDEILKINEDTRVHGLALQISENLFSNKVLNALKPEKDVDGVTDINLGKLVRGDAHECFVSPVAKAVIELLEKSGVNLDGKKILVVGAHGSLEAALQCLFQRKGSMTMSIQWKTRQLQSKLHEADIVVLGSPKPEEIPLTWIQPGTTVLNCSHDFLSGKVGCGSPRIHFGGLIEEDDVILLAAALRIQNMVSSGRRWLREQQHRRWRLHCLKLQPLSPVPSDIEISRGQTPKAVDVLAKEIGLLADEIEIYGKSKAKVRLSVLERLKDQADGKYVLVAGITPTPLGEGKSTVTIGLVQALTAHLNVNSFACLRQPSQGPTFGVKGGAAGGGYAQVIPMEEFNLHLTGDIHAITAANNLLAAAIDTRILHENTQTDKALYNRLVPLVNGVREFSEIQLARLKKLGINKTDPSTLTEEEVSKFARLDIDPSTITWQRVLDTNDRFLRKITIGQGNTEKGHYRQAQFDIAVASEIMAVLALTDSLADMKARLGRMVVASDKSGQPVTADDLGVTGALTVLMKDAIKPNLMQTLEGTPVFVHAGPFANIAHGNSSVLADKIALKLVGEEGFVVTEAGFGADIGMEKFFNIKCRASGLVPNVVVLVATVRALKMHGGGPSVTAGVPLKKEYTEENIQLVADGCCNLQKQIQITQLFGVPVVVALNVFKTDTRAEIDLVCELAKRAGAFDAVPCYHWSVGGKGSVDLARAVREAASKRSRFQFLYDVQVPIVDKIRTIAQAVYGAKDIELSPEAQAKIDRYTQQGFGNLPICMAKTHLSLSHQPDKKGVPRDFILPISDVRASIGAGFIYPLVGTMSTMPGLPTRPCFYDIDLDTETEQVKGLF
B2: C1TC_HUMAN (protein, UniProt P11586 1-935, looked up)
C-1-tetrahydrofolate …: MAPAEILNGKEISAQIRARLKNQVTQLKEQVPGFTPRLAILQVGNRDDSNLYINVKLKAAEEIGIKATHIKLPRTTTESEVMKYITSLNEDSTVHGFLVQLPLDSENSINTEEVINAIAPEKDVDGLTSINAGKLARGDLNDCFIPCTPKGCLELIKETGVPIAGRHAVVVGRSKIVGAPMHDLLLWNNATVTTCHSKTAHLDEEVNKGDILVVATGQPEMVKGEWIKPGAIVIDCGINYVPDDKKPNGRKVVGDVAYDEAKERASFITPVPGGVGPMTVAMLMQSTVESAKRFLEKFKPGKWMIQYNNLNLKTPVPSDIDISRSCKPKPIGKLAREIGLLSEEVELYGETKAKVLLSALERLKHRPDGKYVVVTGITPTPLGEGKSTTTIGLVQALGAHLYQNVFACVRQPSQGPTFGIKGGAAGGGYSQVIPMEEFNLHLTGDIHAITAANNLVAAAIDARIFHELTQTDKALFNRLVPSVNGVRRFSDIQIRRLKRLGIEKTDPTTLTDEEINRFARLDIDPETITWQRVLDTNDRFLRKITIGQAPTEKGHTRTAQFDISVASEIMAVLALTTSLEDMRERLGKMVVASSKKGEPVSAEDLGVSGALTVLMKDAIKPNLMQTLEGTPVFVHAGPFANIAHGNSSIIADRIALKLVGPEGFVVTEAGFGADIGMEKFFNIKCRYSGLCPHVVVLVATVRALKMHGGGPTVTAGLPLPKAYIQENLELVEKGFSNLKKQIENARMFGIPVVVAVNAFKTDTESELDLISRLSREHGAFDAVKCTHWAEGGKGALALAQAVQRAAQAPSSFQLLYDLKLPVEDKIRIIAQKIYGADDIELLPEAQHKAEVYTKQGFGNLPICMAKTHLSLSHNPEQKGVPTGFILPIRDIRASVGAGFLYPLVGTMSTMPGLPTRPCFYDIDLDPETEQVNGLF
B3: MCCA_HUMAN (protein, UniProt Q96RQ3 42-725, looked up)
Methylcrotonoyl-CoA …: TTATGRNITKVLIANRGEIACRVMRTAKKLGVQTVAVYSEADRNSMHVDMADEAYSIGPAPSQQSYLSMEKIIQVAKTSAAQAIHPGCGFLSENMEFAELCKQEGIIFIGPPPSAIRDMGIKSTSKSIMAAAGVPVVEGYHGEDQSDQCLKEHARRIGYPVMIKAVRGGGGKGMRIVRSEQEFQEQLESARREAKKSFNDDAMLIEKFVDTPRHVEVQVFGDHHGNAVYLFERDCSVQRRHQKIIEEAPAPGIKSEVRKKLGEAAVRAAKAVNYVGAGTVEFIMDSKHNFCFMEMNTRLQVEHPVTEMITGTDLVEWQLRIAAGEKIPLSQEEITLQGHAFEARIYAEDPSNNFMPVAGPLVHLSTPRADPSTRIETGVRQGDEVSVHYDPMIAKLVVWAADRQAALTKLRYSLRQYNIVGLHTNIDFLLNLSGHPEFEAGNVHTDFIPQHHKQLLLSRKAAAKESLCQAALGLILKEKAMTDTFTLQAHDQFSPFSSSSGRRLNISYTRNMTLKDGKNNVAIAVTYNHDGSYSMQIEDKTFQVLGNLYSEGDCTYLKCSVNGVASKAKLIILENTIYLFSKEGSIEIDIPVPKYLSSVSSQETQGGPLAPMTGTIEKVFVKAGDKVKAGDSLMVMIAMKMEHTIKSPKDGTVKKVFYREGAQANRHTPLVEFEEEESDKRESE
B4: HNRPM_HUMAN (protein, UniProt P52272 2-730, looked up)
Heterogeneous nuclear …: AAGVEAAAEVAATEIKMEEESGAPGVPSGNGAPGPKGEGERPAQNEKRKEKNIKRGGNRFEPYANPTKRYRAFITNIPFDVKWQSLKDLVKEKVGEVTYVELLMDAEGKSRGCAVVEFKMEESMKKAAEVLNKHSLSGRPLKVKEDPDGEHARRAMQKVMATTGGMGMGPGGPGMITIPPSILNNPNIPNEIIHALQAGRLGSTVFVANLDYKVGWKKLKEVFSMAGVVVRADILEDKDGKSRGIGTVTFEQSIEAVQAISMFNGQLLFDRPMHVKMDERALPKGDFFPPERPQQLPHGLGGIGMGLGPGGQPIDANHLNKGIGMGNIGPAGMGMEGIGFGINKMGGMEGPFGGGMENMGRFGSGMNMGRINEILSNALKRGEIIAKQGGGGGGGSVPGIERMGPGIDRLGGAGMERMGAGLGHGMDRVGSEIERMGLVMDRMGSVERMGSGIERMGPLGLDHMASSIERMGQTMERIGSGVERMGAGMGFGLERMAAPIDRVGQTIERMGSGVERMGPAIERMGLSMERMVPAGMGAGLERMGPVMDRMATGLERMGANNLERMGLERMGANSLERMGLERMGANSLERMGPAMGPALGAGIERMGLAMGGGGGASFDRAIEMERGNFGGSFAGSFGGAGGHAPGVARKACQIFVRNLPFDFTWKMLKDKFNECGHVLYADIKMENGKSKGCGVVKFESPEVAERACRMMNGMKLSGREIDVRIDRNA
B5: NU160_HUMAN (protein, UniProt Q12769 1-1436, looked up)
Nuclear pore complex protein …: MLHLSAAPPAPPPEVTATARPCLCSVGRRGDGGKMAAAGALERSFVELSGAERERPRHFREFTVCSIGTANAVAGAVKYSESAGGFYYVESGKLFSVTRNRFIHWKTSGDTLELMEESLDINLLNNAIRLKFQNCSVLPGGVYVSETQNRVIILMLTNQTVHRLLLPHPSRMYRSELVVDSQMQSIFTDIGKVDFTDPCNYQLIPAVPGISPNSTASTAWLSSDGEALFALPCASGGIFVLKLPPYDIPGMVSVVELKQSSVMQRLLTGWMPTAIRGDQSPSDRPLSLAVHCVEHDAFIFALCQDHKLRMWSYKEQMCLMVADMLEYVPVKKDLRLTAGTGHKLRLAYSPTMGLYLGIYMHAPKRGQFCIFQLVSTESNRYSLDHISSLFTSQETLIDFALTSTDIWALWHDAENQTVVKYINFEHNVAGQWNPVFMQPLPEEEIVIRDDQDPREMYLQSLFTPGQFTNEALCKALQIFCRGTERNLDLSWSELKKEVTLAVENELQGSVTEYEFSQEEFRNLQQEFWCKFYACCLQYQEALSHPLALHLNPHTNMVCLLKKGYLSFLIPSSLVDHLYLLPYENLLTEDETTISDDVDIARDVICLIKCLRLIEESVTVDMSVIMEMSCYNLQSPEKAAEQILEDMITIDVENVMEDICSKLQEIRNPIHAIGLLIREMDYETEVEMEKGFNPAQPLNIRMNLTQLYGSNTAGYIVCRGVHKIASTRFLICRDLLILQQLLMRLGDAVIWGTGQLFQAQQDLLHRTAPLLLSYYLIKWGSECLATDVPLDTLESNLQHLSVLELTDSGALMANRFVSSPQTIVELFFQEVARKHIISHLFSQPKAPLSQTGLNWPEMITAITSYLLQLLWPSNPGCLFLECLMGNCQYVQLQDYIQLLHPWCQVNVGSCRFMLGRCYLVTGEGQKALECFCQAASEVGKEEFLDRLIRSEDGEIVSTPRLQYYDKVLRLLDVIGLPELVIQLATSAITEAGDDWKSQATLRTCIFKHHLDLGHNSQAYEALTQIPDSSRQLDCLRQLVVVLCERSQLQDLVEFPYVNLHNEVVGIIESRARAVDLMTHNYYELLYAFHIYRHNYRKAGTVMFEYGMRLGREVRTLRGLEKQGNCYLAALNCLRLIRPEYAWIVQPVSGAVYDRPGASPKRNHDGECTAAPTNRQIEILELEDLEKECSLARIRLTLAQHDPSAVAVAGSSSAEEMVTLLVQAGLFDTAISLCQTFKLPLTPVFEGLAFKCIKLQFGGEAAQAEAWAWLAANQLSSVITTKESSATDEAWRLLSTYLERYKVQNNLYHHCVINKLLSHGVPLPNWLINSYKKVDAAELLRLYLNYDLLEEAVDLVSEYVDAVLGKGHQYFGIEFPLSATAPMVWLPYSSIDQLLQALGENSANSHNIALSQKILDKLEDYQQKVDKATRDLLYRRTL
B6: DDX5_HUMAN (protein, UniProt P17844 1-614, looked up)
Probable ATP-dependent RNA …: MSGYSSDRDRGRDRGFGAPRFGGSRAGPLSGKKFGNPGEKLVKKKWNLDELPKFEKNFYQEHPDLARRTAQEVETYRRSKEITVRGHNCPKPVLNFYEANFPANVMDVIARQNFTEPTAIQAQGWPVALSGLDMVGVAQTGSGKTLSYLLPAIVHINHQPFLERGDGPICLVLAPTRELAQQVQQVAAEYCRACRLKSTCIYGGAPKGPQIRDLERGVEICIATPGRLIDFLECGKTNLRRTTYLVLDEADRMLDMGFEPQIRKIVDQIRPDRQTLMWSATWPKEVRQLAEDFLKDYIHINIGALELSANHNILQIVDVCHDVEKDEKLIRLMEEIMSEKENKTIVFVETKRRCDELTRKMRRDGWPAMGIHGDKSQQERDWVLNEFKHGKAPILIATDVASRGLDVEDVKFVINYDYPNSSEDYIHRIGRTARSTKTGTAYTFFTPNNIKQVSDLISVLREANQAINPKLLQLVEDRGSGRSRGRGGMKDDRRDRYSAGKRGGFNTFRDRENYDRGYSSLLKRDFGAKTQNGVYSAANYTNGSFGSNFVSAGIQTSFRTGNPTGTYQNGYDSTQQYGSNVPNMHNGMNQQAYAYPATAAAPMIGYPMPTGYSQ
B7: P5CS_HUMAN (protein, UniProt P54886 1-795, looked up)
Delta-1-pyrroline-5-carboxylat …: MLSQVYRCGFQPFNQHLLPWVKCTTVFRSHCIQPSVIRHVRSWSNIPFITVPLSRTHGKSFAHRSELKHAKRIVVKLGSAVVTRGDECGLALGRLASIVEQVSVLQNQGREMMLVTSGAVAFGKQRLRHEILLSQSVRQALHSGQNQLKEMAIPVLEARACAAAGQSGLMALYEAMFTQYSICAAQILVTNLDFHDEQKRRNLNGTLHELLRMNIVPIVNTNDAVVPPAEPNSDLQGVNVISVKDNDSLAARLAVEMKTDLLIVLSDVEGLFDSPPGSDDAKLIDIFYPGDQQSVTFGTKSRVGMGGMEAKVKAALWALQGGTSVVIANGTHPKVSGHVITDIVEGKKVGTFFSEVKPAGPTVEQQGEMARSGGRMLATLEPEQRAEIIHHLADLLTDQRDEILLANKKDLEEAEGRLAAPLLKRLSLSTSKLNSLAIGLRQIAASSQDSVGRVLRRTRIAKNLELEQVTVPIGVLLVIFESRPDCLPQVAALAIASGNGLLLKGGKEAAHSNRILHLLTQEALSIHGVKEAVQLVNTREEVEDLCRLDKMIDLIIPRGSSQLVRDIQKAAKGIPVMGHSEGICHMYVDSEASVDKVTRLVRDSKCEYPAACNALETLLIHRDLLRTPLFDQIIDMLRVEQVKIHAGPKFASYLTFSPSEVKSLRTEYGDLELCIEVVDNVQDAIDHIHKYGSSHTDVIVTEDENTAEFFLQHVDSACVFWNASTRFSDGYRFGLGAEVGISTSRIHARGPVGLEGLLTTKWLLRGKDHVVSDFSEHGSLKYLHENLPIPQRNTN

Test system: KDM4A-I71AzF
Experiment: CASI: photo-crosslinking with HEK293T cell extracts, StrepTactin enrichment and LC-MS/MS proteomics;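 note: lysates from HEK293T cells pretreated with a KDM4 inhibitor to raise proteome methylation, affinity-purified after ±UV, gel-resolved, trypsin-digested, with exclusive unique peptides per protein averaged per condition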
Type: binding, human
Settings: sheet "Final results but with 0.01"

Molecule | Fold change (+UV/-UV)
B1 | 1.091
B2 | 0.9444
B3 | 0
B4 | 1
B5 | 0.5
B6 | 1.6
B7 | 2.143
